Source: patent US20120021993A1 (AJOU UNIVERSITY INDUSTRY ACADEMIC COOPERATION FOUNDATION, published 2012)

T1: DcR1 (UniProt O14798 26-221, limits assumed)
T1 sequence (looked up): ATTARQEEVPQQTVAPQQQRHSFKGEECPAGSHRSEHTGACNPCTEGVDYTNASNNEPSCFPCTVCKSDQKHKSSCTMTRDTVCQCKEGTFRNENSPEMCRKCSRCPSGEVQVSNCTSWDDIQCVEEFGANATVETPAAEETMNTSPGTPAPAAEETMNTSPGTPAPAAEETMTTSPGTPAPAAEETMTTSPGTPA

T2: DcR2 (UniProt Q9UBN6 56-211, limits assumed)
T2 sequence (looked up): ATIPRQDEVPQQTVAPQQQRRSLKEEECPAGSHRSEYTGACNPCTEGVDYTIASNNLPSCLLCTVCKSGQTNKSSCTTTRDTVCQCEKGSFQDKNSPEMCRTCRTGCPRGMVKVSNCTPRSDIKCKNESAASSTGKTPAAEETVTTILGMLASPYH


Experiments:
[1] = molecular target: T3, human-derived cell death receptor 4, extracellular domain (amino acid residues 1-216), 6xHis tag (human, UniProt O00220 24-239); experiment: ELISA, coated target, A405
T3 construct: extracellular domain; Expressed in E. coli; biotinylated for sorting and flow cytometry; residues 1-216; also called DR4; TRAIL-receptor 1
Experimental: (§1) In order to measure the affinity and cross reactivity of the anti-DR4, -DR5 and -TNFα protein scaffold variants based on the Kringle domain structure to the target molecules, an enzyme-linked immunosorbent assay (ELISA) was performed. The target molecules DR4, DR5, TNFα and DcR1, DcR2 were attached to a 96 well EIA/RIA plate (COSTARCorning In., USA) by its reaction at 37° C. for 1 hour, and washed three times with 0.1% PBST (0.1% Tween20, pH 7.4, 137 mM NaCl, 10 mM Phosphate, 2.7 mM KCl, SIGMA-ALDRICH Co., USA) for 10 minutes. The target molecules were attached for 1 hour to a 96 well EIA/RIA plate in 1% PBSB (1% BSA, pH 7.4, 137 mM NaCl, 10 mM Phosphate, 2.7 mM KCl, SIGMA-ALDRICH Co., USA), and then washed three times with 0.1% PBST (0.1% Tween 20, pH 7.4, 137 mM NaCl, 10 mM Phosphate, 2.7 mM KCl, SIGMA-ALDRICH Co., USA) for 10 minutes. Then, the anti-DR4, -DR5 and -TNFα Kringle domain variants were bound, and washed three times with 0.1% PBST for 10 minutes. The anti-DR4, -DR5 and -TNFα Kringle domain variants were primarily bound to mouse-derived anti-c-myc 9e10 mAb (Ig Therapy, Korea), and secondarily bound to alkaline phosphatase (AP)-conjugated anti-mouse mAb (Sigma). Each of the Kringle domain variants was reacted with […] (pNPP, Sigma-aldrich Co., USA) and quantified at an absorbance of 405 nm.

DcR1 [2] = molecular target: T1, DcR1; experiment: ELISA, coated target, single binder concentration not given, A405
Experimental: as §1

DcR2 [3] = molecular target: T2, DcR2; experiment: as above
Experimental: as §1

[4] = molecular target: T4, human-derived cell death receptor 5, extracellular domain (amino acid residues 1-130), 6xHis tag (human, UniProt O14763 56-210); experiment: ELISA, coated target, A405
T4 construct: extracellular domain; Expressed in E. coli; biotinylated for sorting and flow cytometry; also called DR5; TRAIL-receptor 2
Experimental: as §1

[5] = molecular target: T3, human-derived cell death receptor 4, …; experiment: ELISA, coated target, single binder concentration not given, A405
Experimental: as §1

DcR1 [6] = molecular target: T1, DcR1; experiment: yeast display, flow cytometry MFI [panel KD415]
DcR2 [7] = molecular target: T2, DcR2; experiment: yeast display, flow cytometry MFI [panel KD415]
[8] = molecular target: T3, human-derived cell death receptor 4, …; experiment: yeast display, flow cytometry MFI [panel KD506]
DcR1 [9] = molecular target: T1, DcR1; experiment: yeast display, flow cytometry MFI [panel KD506]
DcR2 [10] = molecular target: T2, DcR2; experiment: yeast display, flow cytometry MFI [panel KD506]

T4 sequence (O14763 other isoform, or with tags, fused parts or gaps limits assumed, form in doubt): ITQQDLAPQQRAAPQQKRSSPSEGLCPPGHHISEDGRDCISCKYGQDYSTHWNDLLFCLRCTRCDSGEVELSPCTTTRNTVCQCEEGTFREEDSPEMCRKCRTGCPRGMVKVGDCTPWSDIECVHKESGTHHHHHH
T3 sequence (O00220 other isoform, or with tags, fused parts or gaps): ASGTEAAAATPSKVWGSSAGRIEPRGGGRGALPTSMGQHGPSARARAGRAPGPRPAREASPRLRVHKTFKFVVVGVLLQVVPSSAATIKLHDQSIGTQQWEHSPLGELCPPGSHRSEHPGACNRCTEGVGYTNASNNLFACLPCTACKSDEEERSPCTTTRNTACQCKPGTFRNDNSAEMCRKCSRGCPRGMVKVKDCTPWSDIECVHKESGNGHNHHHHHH

Binder | binding result (DcR1 [2]) | binding result (DcR2 [3]) | binding result [5] | further results
KD456 (designed binder) CDKNRGNGYDGNEIQTDGGVQCQHWTKTKPHHHGLKLQHEHRVKHEKNYCRNPDARTQPWCFTDKHQHKDELCIEPRC | no binding | no binding |  | EC50 (read off the curve) [1]: ~2000 nM
KD459 (designed binder) CSRYRGHKYDGYKHRTYKGYQCQSWTKDKPHHHGIRHRNKIRDRFGKNYCRNPDTQNQPWCFTYGDEYRYELCNKPRC |  |  |  | EC50 (read off the curve) [1]: ~2000 nM
KD502 (designed binder) CAEDKGARYDGYQYRTHKGIKCQPWYQHEPHYHGHKDKIRHKNRNKKNYCRNPDAGDRPWCFTHRDKYEHELCNRPRC | no binding | no binding | no binding | EC50 (read off the curve) [4]: ~2000 nM
KD503 (designed binder) CTQTKGHRYDGYKYETNWGHQCQAWTKHKPHLHGNGHRNRHKVGHEKNYCRNPDHRDGPWCFTNQYENENELCHQPRC | no binding | no binding | no binding | EC50 (read off the curve) [4]: ~400 nM
KD404 (designed binder, Soluble monomer from Pichia pastoris; also called anti-DR4 Kringle domain variant KD404; not shown: C-terminal myc tag-6xHis tag of pPICZaA) CSRDKGYRYDGDGNKTLKGHKCQHWTKSKPHDHGYRHKLGNEDKFKKNYCRNPDTRAGPWCFTDQYRDRDELCYQPRC |  | no binding |  | EC50 (read off the curve) [1]: ~600 nM
KD542 (designed binder, Soluble monomer from Pichia pastoris; not shown: C-terminal myc tag-6xHis tag of pPICZaA) CNRAGGHKYDGDRYRTHRGDGCQNWAKTKPHHHGIGHRDKIRDKYRKNYCRNPDAKNGPWCFTNRNGDKNELCIQPRC |  |  | binds | EC50 (read off the curve) [4]: ~5000 nM
KD408 (designed binder) CDRHKGPKYDGFRDRTHKGHKCQYWDKPRPHHHGHKHGDEFRNRLGKNYCRNPDSQAEPWCFTHKDKYKYELCYQPRC | no binding | no binding |  | binding result [1]: binds
KD409 (designed binder) CAKDKGDKYDGHKHKTNRGDKCQTWAKNRPHFHGHRFEVGHEHKIRKNYCRNPDDQDKPWCFTHGYRNQDELCDGPRC | no binding | no binding | binds | 
KD421 (designed binder) CAGAEGNEYDGDKYKTHKGYRCQRWDKSRPHNHGNKDRHQHENKVGKNYCRNPDNEAEPWCFTDQHKHGNELCDRPRC | no binding | no binding | binds | 
KD437 (designed binder) CAKSRGYKYDGNRYKTNKGDKCQAWTKTKPHDHGHRHGHGDRFRNRKNYCRNPDHESKPWCFTYRDRYRHELCNRPRC | no binding | no binding | binds | 
L1234 (KD415) (designed binder, also called KD415L1234) CTRSKGDEYDGHKHKTNRGLRCQHWPGTKPHFHGDKIKDRHGFRLKKNYCRNPDRELRPWCFTTDPNKRWELCDIPRC |  |  |  | binding result (DcR1 [6]): no binding; binding result (DcR2 [7]): no binding
KD415L567 (designed binder) CMHCSGENYDGKISKTMSGLECQAWDSQSPHAHGYIPSKFPNKNLKKNYCRNPDPQDQPWCFTNRHQHKNELCNQPRC |  |  |  | binding result (DcR1 [6]): no binding; binding result (DcR2 [7]): no binding
KD506L567 (designed binder) CMHCSGENYDGKISKTMSGLECQAWDSQSPHAHGYIPSKFPNKNLKKNYCRNPDYETGPWCFTNRYRNKNELCHEPRC |  |  |  | binding result [8]: no binding; binding result (DcR1 [9]): no binding; binding result (DcR2 [10]): no binding
L5 (KD415) (designed binder, also called KD415L5) CMHCSGENYDGKISKTMSGLECQAWDSQSPHAHGYIPSKFPNKNLKKNYCRNPDPQDQPWCFTTDPNKRWELCDIPRC |  |  |  | binding result (DcR1 [6]): no binding; binding result (DcR2 [7]): no binding
L5 (KD506) (designed binder, also called KD506L5) CMHCSGENYDGKISKTMSGLECQAWDSQSPHAHGYIPSKFPNKNLKKNYCRNPDYETGPWCFTTDPNKRWELCDIPRC |  |  |  | binding result [8]: no binding; binding result (DcR1 [9]): no binding; binding result (DcR2 [10]): no binding
L1234 (KD506) (designed binder, also called KD506L1234) CPEDRGHEYDGDGDKTNRGHGCQYWDQNKPHHHGHRDKDKFKHRIKKNYCRNPDRELRPWCFTTDPNKRWELCDIPRC |  |  |  | binding result [8]: no binding; binding result (DcR1 [9]): no binding; binding result (DcR2 [10]): no binding
L56 (KD506) (designed binder, also called KD506L56) CMHCSGENYDGKISKTMSGLECQAWDSQSPHAHGYIPSKFPNKNLKKNYCRNPDYETGPWCFTNRYRNKNELCDIPRC |  |  |  | binding result [8]: no binding; binding result (DcR1 [9]): no binding; binding result (DcR2 [10]): no binding
KDT08 (designed binder, Soluble monomer from Pichia pastoris; also called KRT08; not shown: C-terminal myc tag-6xHis tag of pPICZaA) CPKSGGNGYDGYKHGTNEGLQCQNWDRAKPHDHGIEVQNEYGDRHEKNNCRNPDDKTRPWCFTHKDRYRNELCYQPRC |  |  | no binding | 

The next lines start with results.

binding result (DcR1 [2]) | binding result (DcR2 [3]) | Binder | binding result [5] | further results
no binding | no binding | KD445 (designed binder) CHETKGHKYDGHRLRTNKGDRCQPWTKDKPHHHGFRDQYQVRYKLKKNYCRNPDDQNKPWCFTDGNQHEHELCNGPRC | binds | 
no binding | no binding | KD505 (designed binder, also called KDS05) CPEDQGDEYDGHEHKTHRGNRCQSWYRPKPHNHGHRIKDRYKYKVKKNYCRNPDTQARPWCFTNRHRDEHELCDQPRC | no binding | 
 | no binding | KD509 (designed binder) single chain: CAQSKGYRYDGDKDKTNKGHKCQDWAQNKPHVHGHRHEDRHQVKSRKNYCRNPDARARPWCFTNQVRYRNELCYKPRC |  | 
no binding | no binding | KD537 (designed binder) CTRTKGAKYDGYKHRTHEGNKCQSWNKARPHLHGDRLGNKYEHKARKNYCRNPDNRAEPWCFTDKNQNQHELCYGPRC | no binding | 
no binding | no binding | KD555 (designed binder, also called KDS55) CDGAQGNGYDGNKHKTHRGNKCQAWPKHGPHYHGNGDQDGHRNKHKKNYCRNPDTRSRPWCFTDQNGHKDELCHGPRC | no binding | 
